In article PMC6412877, “Novel Site-Specific Fatty Chain-Modified GLP-1 Receptor Agonist with Potent Antidiabetic Effects” (Molecules, 2019):
Read-outs that look alike come from different tables or passages of the source. Ends that are not written are not given here. fatty chain = not defined here

What was measured:
[1] = target: Glucagon-like peptide-1 receptor extracellular domain; test: SPR; Biacore 8K, according to the user's manual; who was immobilised and the conditions are not stated
Human GLP-1R (human) = Human GLP-1R (human) (UniProt P43220)
Mouse GLP-1R (mouse) = Mouse GLP-1R (mouse) (UniProt O35659)
[2] = target: Glucagon-like peptide-1 receptor extracellular domain; test: SPR; Biacore 8K, according to the user's manual; who was immobilised and the conditions are not stated; remark: listed apart in the source

Chain of Mouse GLP-1R (mouse) (O35659 22-463): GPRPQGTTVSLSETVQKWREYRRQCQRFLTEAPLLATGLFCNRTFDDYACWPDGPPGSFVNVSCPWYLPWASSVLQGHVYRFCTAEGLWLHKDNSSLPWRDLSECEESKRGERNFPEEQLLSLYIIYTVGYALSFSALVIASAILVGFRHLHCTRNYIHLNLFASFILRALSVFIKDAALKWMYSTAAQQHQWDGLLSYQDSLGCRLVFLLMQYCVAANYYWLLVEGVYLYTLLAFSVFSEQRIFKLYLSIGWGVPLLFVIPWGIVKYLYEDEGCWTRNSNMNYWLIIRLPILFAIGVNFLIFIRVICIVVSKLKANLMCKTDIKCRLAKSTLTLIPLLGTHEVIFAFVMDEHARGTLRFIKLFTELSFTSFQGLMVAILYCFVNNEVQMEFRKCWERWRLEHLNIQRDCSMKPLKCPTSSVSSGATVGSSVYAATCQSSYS
Chain of Human GLP-1R (human) (P43220 24-463): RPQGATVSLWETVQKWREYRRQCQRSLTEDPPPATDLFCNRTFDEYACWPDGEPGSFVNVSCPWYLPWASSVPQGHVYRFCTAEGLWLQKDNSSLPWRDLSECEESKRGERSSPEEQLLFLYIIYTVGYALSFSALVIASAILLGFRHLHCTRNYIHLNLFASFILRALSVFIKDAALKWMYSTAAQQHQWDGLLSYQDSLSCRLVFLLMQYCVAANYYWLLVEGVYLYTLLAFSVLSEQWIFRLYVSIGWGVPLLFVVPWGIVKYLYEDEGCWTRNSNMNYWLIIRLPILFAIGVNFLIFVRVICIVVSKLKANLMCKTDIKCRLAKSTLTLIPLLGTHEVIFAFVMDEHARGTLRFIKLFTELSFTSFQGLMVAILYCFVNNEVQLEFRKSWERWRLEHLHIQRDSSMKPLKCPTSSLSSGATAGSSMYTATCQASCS

Binder	Kd [1]	EC50 (nM), Human GLP-1R activation, in vitro cell assay (Human GLP-1R (human))	Emax (%), Human GLP-1R activation, in vitro cell assay (Human GLP-1R (human))	EC50 (nM), Mouse GLP-1R activation, in vitro cell assay (Mouse GLP-1R (mouse))	Emax (%), Mouse GLP-1R activation, in vitro cell assay (Mouse GLP-1R (mouse))	Kd [2]
FFYSSPSAYLEK(fatty chain)GGPSSGAPPPS (reading uncertain; also: fatty chain not given here) [PEP20]	25 nM	0.062 nM	98%	0.051 nM	99%	–
FFYSSPSAYLKTGGPSSGAPPPS [PEP15]	33 nM	0.451 nM	78%	0.457 nM	73%	–
FFYSSPSAKLETGGPSSGAPPPS [PEP13]	98 nM	0.064 nM	96%	0.051 nM	110%	–
FFYSSPSAYK(fatty chain)ETGGPSSGAPPPS (reading uncertain; also: fatty chain not given here) [PEP18]	62 nM	0.391 nM	78%	0.351 nM	78%	–
FFYSSPSAYLK(fatty chain)TGGPSSGAPPPS (reading uncertain; also: fatty chain not given here) [PEP19]	91 nM	0.152 nM	89%	0.212 nM	83%	–
KQYSSPTAWLVGGPSSGAPPPS [PEP09]	253 nM	–	–	–	–	–
FFYSSPSAYLEKGGPSSGAPPPS [PEP16]	23 nM	0.111 nM	92%	0.101 nM	93%	25 nM
FFYSSPSAK(fatty chain)LETGGPSSGAPPPS (reading uncertain; also: fatty chain not given here) [PEP17]	158 nM	0.412 nM	79%	0.678 nM	68%	–
FFYSSPSAYKETGGPSSGAPPPS [PEP14]	53 nM	0.051 nM	105%	0.034 nM	150%	–
